Molecular target: T1, Ebola VP40 (1-326) (Ebola virus (EBOV), UniProt Q05128 1-326)
T1 sequence: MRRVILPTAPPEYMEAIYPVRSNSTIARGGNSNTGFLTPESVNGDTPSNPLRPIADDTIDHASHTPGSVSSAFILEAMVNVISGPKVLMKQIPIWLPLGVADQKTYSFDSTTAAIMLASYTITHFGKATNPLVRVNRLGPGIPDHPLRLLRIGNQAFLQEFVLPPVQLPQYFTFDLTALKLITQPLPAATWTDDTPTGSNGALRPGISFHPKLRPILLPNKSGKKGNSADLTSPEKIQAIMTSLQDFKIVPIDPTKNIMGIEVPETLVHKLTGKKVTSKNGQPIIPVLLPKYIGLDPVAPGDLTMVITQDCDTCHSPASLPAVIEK
Test: co-immunoprecipitation with anti-Myc antibody from transfected 293T cells

B1: Myc tagged TSG101 truncated at position 140 (other)
chain: MAVSESQLKKMVSKYKYRDLTVRETVNVITLYKDLKPVLDSYVFNDGSSRELMNLTGTIPVPYRGNTYNIPICLWLLDTYPYNPPICFVKPTSSMTIKTGKHVDANGKIYLPYLHEWKHPQSDLLGLIQVMIVVFGDEPP
Question: Does B1 bind?
Answer: no binding
